The results in this text go back to publication PMC7921410, “Structure of mammalian Mediator complex reveals Tail module architecture and interaction with a conserved core” (Nature Communications, 2021).

The test concerns the target T1, MED24 (mouse (Mus musculus; endogenous in CH12), UniProt Q99K74 1-987).
T1 construct: MED24, Mus musculus, endogenous lower Tail subunit of Mediator; source: endogenous, CH12 mouse B lymphoma nuclear extract; immunopurified as part of Mediator (FLAG M2 agarose, FLAG peptide elution)
T1 sequence (looked up): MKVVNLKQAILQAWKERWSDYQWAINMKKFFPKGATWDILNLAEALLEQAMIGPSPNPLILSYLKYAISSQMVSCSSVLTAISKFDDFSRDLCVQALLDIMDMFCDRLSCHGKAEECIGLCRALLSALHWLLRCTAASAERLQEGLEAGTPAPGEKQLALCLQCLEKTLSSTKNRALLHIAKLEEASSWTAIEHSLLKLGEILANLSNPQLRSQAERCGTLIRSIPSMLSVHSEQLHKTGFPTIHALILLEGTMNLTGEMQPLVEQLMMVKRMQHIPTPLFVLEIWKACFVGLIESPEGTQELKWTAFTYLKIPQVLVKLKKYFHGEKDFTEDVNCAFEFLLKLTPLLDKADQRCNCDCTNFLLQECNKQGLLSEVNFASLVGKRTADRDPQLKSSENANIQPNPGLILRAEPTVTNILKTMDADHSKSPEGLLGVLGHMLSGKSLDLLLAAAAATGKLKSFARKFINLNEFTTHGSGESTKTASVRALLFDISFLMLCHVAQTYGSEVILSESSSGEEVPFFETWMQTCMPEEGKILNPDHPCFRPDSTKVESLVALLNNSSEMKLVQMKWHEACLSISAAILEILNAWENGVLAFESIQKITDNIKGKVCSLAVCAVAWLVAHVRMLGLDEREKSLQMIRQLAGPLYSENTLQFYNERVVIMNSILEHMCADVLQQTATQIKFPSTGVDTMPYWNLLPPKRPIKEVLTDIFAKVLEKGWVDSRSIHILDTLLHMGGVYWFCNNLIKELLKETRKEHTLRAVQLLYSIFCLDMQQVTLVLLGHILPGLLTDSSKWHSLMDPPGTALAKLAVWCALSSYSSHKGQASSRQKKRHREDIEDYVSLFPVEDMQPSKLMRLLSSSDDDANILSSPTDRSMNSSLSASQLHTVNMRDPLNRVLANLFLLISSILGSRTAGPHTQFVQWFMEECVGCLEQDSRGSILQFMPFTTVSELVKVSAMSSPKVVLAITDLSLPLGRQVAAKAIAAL
The test is described as follows: cryo-EM structure; endogenous mouse Mediator immunopurified from CH12 nuclear extract through 3×FLAG-MED19 or 3×FLAG-MED25; eluted in 50 mM HEPES pH 7.9, 100 mM KCl, 5% glycerol, 1 mM EDTA, 0.005% NP-40; map at 4.0 Å overall, focused refinement of the MED1 and knob/hook ends (6-10 Å). The following applies: both partners purified.

B1: MED15 (natural protein, mouse (Mus musculus; endogenous in CH12), UniProt Q924H2 1-789, looked up)
chain: MDVSGQETDWRSAAFRQKLVSQIEDAMRKAGVAHSKSSKDMESHVFLKAKTRDEYLSLVARLIIHFRDIHNKKSQASVSDPMNALQSLTGGPTPGAAGIGMPPRGPGQSLGGMGGLGAMGQPLPLSGQPPPGTSGMAPHGMAVVSTATPQTQLQLQQVALQQQQQQQQQQQFQQQQAALQQQQQQQQQQQQQQQFQAQQNAMQQQFQAVVQQQQLQQQQQQQHLIKLHHQSQQQQIQQQQLQRMAQLQLQQQQQQQQQQALQAQPPMQQPSMQQPQPPPSQALPQQLSQLHHPQHHQPPPQAQQSPIAQNQPPQIPPQSQSQPLVSQAQALPGPMLYAAQQQLKFVRAPMVVQQPQVQPQVQQVQPQVQPQAAVQAAQSAQMVAPGVQMIAEALAQGGMHVRARFPPTSTMSAGPSSSISLGGQPTTQVSQSSLTMLSSPSPGQQVQTPQSMPPPPQPSPQPGSQPNSNVSSGPAPSPSSFLPSPSPQPSQSPVTARTPQNFSVPSPGPLNTPVNPSSVMSPAGSSQAEEQQYLDKLKQLSKYIEPLRRMINKIDKNEDRKKDLSKMKSLLDILTDPSKRCPLKTLQKCEIALEKLKNDMAVPTPPPPPVLPTKQQDLCQPLLDAVLANIRSPVFNHSLYRTFVPAMMAIHGPPIVSPVVCSRKRRFEEDERQSIPNVLQGEVARLDPKFLVNLDPSHCSNNGTVHLICKLDDKDLPSVPPLELSVPADYPAQSPMWIDRQWQYDANPFLQSVHRCMTSRLLQLPDKHSVTALLNTWAQSIHQACLSAA
notes: MED15, Mus musculus, endogenous lower Tail subunit of Mediator; only the C-terminal portion (from residue 620) is seen in the map; source: endogenous, CH12 mouse B lymphoma nuclear extract; immunopurified as part of Mediator (FLAG M2 agarose, FLAG peptide elution)
Take B1: the binding result is “binds”.

B2: MED25 (natural protein, mouse (Mus musculus; endogenous in CH12), UniProt Q8VCB2 1-745, looked up)
chain: MVPGSEGPARAGGLVADVVFVIEGTANLGPYFEELRKHYLLPAIEYFNGGPPAETDFGGDYGGTQYSLVVFNTVDCAPESYVQCHAPTSSAYEFVTWLDGIKFMGGGGESCSLIAEGLSTALQLFDDFKKMREQIGQTHRVCLLICNSPPYLLPAVESTTYSGCTTESLVQKIGERGIHFSIVSPRKLPALRLLFEKAAPPALLEPLQQPADVSQDPRHMVLVRGLVLPVGGSSTSGSLQTKQAVPLPPAPASAATLSAAPPQALPPVPPQYQVPGNLSAAQVAAQNAVEAAKSQKAGLGPRFSPINPLQQAAPGVGPPFSQAPAPPLAPVPPGAPKPPPASQPSLVSTVAPGPVLAAPAQPGAPSLAGTVTPGGVNGPSAAQLGGPALGGQQSVSNKLLAWSGVLEWQEKPKPASVDANTKLTRSLPCQVYVNHGENLKTEQWPQKLIMQLIPQQLLTTLGPLFRNSRMVQFHFTNKDLESLKGLYRIMGNGFAGCVHFPHTAPCEVRVLMLLYSSKKKIFMGLIPYDQSGFVNGIRQVITNHKQVQQQKLEQQRGMGAQQAPPVLGPILEEQARPPQNLLQLRAPQPQPQGAVGASAATGQPQPQGATQAPTGAPQGPPGAAPGPPPSGPILRPQNPGANPQLRSLLLNPAPPQTGVPPPQASLHHLQPPGAPTLLPPHQSMGQPQLGPQLLHPPPAQSWPTQLPQRAPLPGQMLLSGGPRGPVPQPGLQPSVMEDDILMDLI
notes: MED25, Mus musculus, endogenous lower Tail subunit of Mediator; only the N-terminal von Willebrand domain (aa 15-216) is seen in the map; The 3×FLAG tag stands on MED25 only in the MED25-FLAG cell line; in the MED19-FLAG line MED25 is untagged; Images from the datasets were combined for the final map; also called MED25-FLAG; source: endogenous, CH12 mouse B lymphoma nuclear extract; …
For the molecule B2, the binding result is “binds”.
